Laboratory results: US20210324050A1 (published 2021)

T1: Shell domain (UniProt P54635 1-221)
T1 chain: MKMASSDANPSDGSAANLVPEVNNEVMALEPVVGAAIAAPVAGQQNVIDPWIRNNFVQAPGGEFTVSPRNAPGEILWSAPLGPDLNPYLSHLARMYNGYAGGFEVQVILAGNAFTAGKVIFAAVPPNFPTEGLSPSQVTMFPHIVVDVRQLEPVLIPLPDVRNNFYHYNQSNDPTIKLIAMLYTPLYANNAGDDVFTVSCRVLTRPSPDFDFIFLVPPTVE

B1: 168.2 (antibody, V domains shown)
VH: QVQLVESGGGVVQPGRSLRLSCAASGFTFSSYAMHWVRQAPGKGLEWVAVISYDGSNKYYADSVKGRFTISRDNSKNTLYLQMNSLRAEDTAVYYCARSVIGYYYYGMDVWGQGTLVTVSS
VL: QPVLTQPPSASASLGASVTLTCTLSSGYSNYKVDWYQQRPGKGPRFVMRVGTGGIVGSKGDGIPDRFSVLGSGLNRYLTIKNIQEEDESDYHCGADHGSGILFGGGTKLTVL
B2: 232A.2 (antibody, V domains shown)
VH: QVQLKQWGAGLLKSSETLSLTCAFNGNSFGAFYWSWIRLSPGKGLEWIGEVNYLGGADYNPSLKSRVTMSADTSKRQFSLSLKSVTAADTGVYFCARGRPHDYSPGSYSRPRRYYGLDVWGQGTTVTVSS
VL: EIVLTQSPATLSLSPGDSATLSCRASQAVSTTYLAWYQQTRGQAPRLLIHGTYTRAIGIPDKFSGTGSGTDFTLTISGLAPEDFAVYYCQQYSSSPYTFGQGTKIEIT

Tests used:
GII.13 = GII.13 (norovirus GII.13); assay: ELISA
GII.17 = GII.17 (norovirus GII.17); assay: ELISA
GI.3 = GI.3 (norovirus GI.3); assay: ELISA
GII.3 = GII.3 (norovirus GII.3); assay: ELISA
GII.6 Shell = GII.6 Shell (norovirus GII.6); assay: ELISA
GII.17 Shell = GII.17 Shell (norovirus GII.17); assay: ELISA
GI.3 Protruding = GI.3 Protruding (norovirus GI.3); assay: ELISA
GII.6 Protruding = GII.6 Protruding (norovirus GII.6); assay: ELISA
GII.17 Protruding = GII.17 Protruding (norovirus GII.17); assay: ELISA
GI.3 Shell = GI.3 Shell (norovirus GI.3); assay: ELISA
GII.6 [1] = biological target: GII.6 (norovirus GII.6); assay: ELISA
GII.4 Protruding = assay: ELISA
Shell domain = biological target: T1, Shell domain; assay: ELISA
Protruding domain = assay: ELISA
GII.4 = GII.4 (UniProt P54635 1-538); assay: VLP-PGM blockade
GII.6 [2] = biological target: GII.6 (norovirus GII.6); assay: VLP-PGM blockade
GII.4 Houston 2002 VLP [3] = biological target: T2, GII.4 Houston 2002 VLP (UniProt P54635 1-539); assay: VLP blockade
GII.4 Houston 2002 VLP [4] = biological target: T2, GII.4 Houston 2002 VLP; assay: ELISA binding

| Binder | EC50 (GII.13) | EC50 (GII.17) | EC50 (GI.3) | EC50 (GII.3) | EC50 (GII.6 Shell) | EC50 (GII.17 Shell) | EC50 (GI.3 Protruding) | EC50 (GII.6 Protruding) | EC50 (GII.17 Protruding) | EC50 (GI.3 Shell) | EC50 (GII.6 [1]) | EC50 (GII.4 Protruding) | EC50 (Shell domain) | EC50 (Protruding domain) | EC50 (GII.4) | EC50 (GII.6 [2]) | EC50 (GII.4 Houston 2002 VLP [3]) | EC50 (GII.4 Houston 2002 VLP [4]) |
| --- | --- | --- | --- | --- | --- | --- | --- | --- | --- | --- | --- | --- | --- | --- | --- | --- | --- | --- |
| B1 | 0.107 µM | 0.153 µM | 0.008 µM | 0.224 µM | 0.162 µM | 0.183 µM | 0.143 µM | 0.135 µM | 0.39 µM | 0.037 µM |  |  |  |  |  |  |  |  |
| B2 | 0.002 µM |  |  | 0.001 µM |  |  |  | 0.002 µM | 0.002 µM |  | 0.001 µM | 0.003 µM | 38.1 mg/L | 0.4 mg/L | 0.115 µM | 0.02 µM | 5.4 mg/L | 0.2 mg/L |
